B1: Adaptin ear-binding coat-associated protein 1 (Mus musculus), Q9CR95 (parent)
chain: MAAELEYESVLCVKPDVSVYRIPPRASNRGYRASDWKLDQPDWTGRLRITSKGKIAYIKLEDKVSGELFAQAPVEQYPGIAVETVTDSSRYFVIRIQDGTGRSAFIGIGFTDRGDAFDFNVSLQDHFKWVKQETEISKESQEMDNRPKLDLGFKEGQTIKLSIGNITAKKGGASKPRASGTGGLSLLPPPPGGKVTIPPPSSSVAISNHVTPPPIPKSNHGGNDSDILLDLDSPAPVSTSAPAPVSTSNDLWGDFSTASSSVPNQAPQPSNWVQF
partner: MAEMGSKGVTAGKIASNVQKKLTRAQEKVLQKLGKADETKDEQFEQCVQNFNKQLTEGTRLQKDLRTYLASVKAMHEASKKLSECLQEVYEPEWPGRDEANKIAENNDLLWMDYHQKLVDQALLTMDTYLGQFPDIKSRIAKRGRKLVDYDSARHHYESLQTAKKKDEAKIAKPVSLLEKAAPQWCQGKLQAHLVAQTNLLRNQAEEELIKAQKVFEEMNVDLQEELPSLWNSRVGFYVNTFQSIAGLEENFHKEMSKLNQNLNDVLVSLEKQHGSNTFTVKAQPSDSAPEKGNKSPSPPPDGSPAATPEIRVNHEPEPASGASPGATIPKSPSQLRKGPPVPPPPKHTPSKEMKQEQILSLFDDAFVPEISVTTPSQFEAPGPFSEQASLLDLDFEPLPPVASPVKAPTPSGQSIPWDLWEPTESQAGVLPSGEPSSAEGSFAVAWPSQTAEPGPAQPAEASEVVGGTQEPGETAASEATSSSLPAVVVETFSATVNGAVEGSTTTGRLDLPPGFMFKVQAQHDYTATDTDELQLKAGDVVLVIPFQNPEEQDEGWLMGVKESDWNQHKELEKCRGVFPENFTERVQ
B2: Adaptin ear-binding coat-associated protein 2 (Mus musculus), Q9D1J1 (parent)
chain: MEESEYESVLCVKPEVHVYRIPPRATNRGYRASEWQLDQPSWSGRLRITAKGKVAYIKLEDRTSGELFAQAPVDQFPGTAVESVTDSSRYFVIRIEDGNGRRAFIGLGFGDRGDAFDFNVALQDHFKWVKQQCEFAKQAQNPDEGPKLDLGFKDGQTIKINIANMRKKEGAAGTPRARPTSAGGLSLLPPPPGGKSSTVIPPSGEQLSVGGSLVQPAVVSGSGGATELWPQSKPAAAATADIWGDFTKSTGSPSSQSQPGTGWVQF
B3: Adaptin ear-binding coat-associated protein 2 (Mus musculus), Q9D1J1 (parent)
chain: B2 chain
partner: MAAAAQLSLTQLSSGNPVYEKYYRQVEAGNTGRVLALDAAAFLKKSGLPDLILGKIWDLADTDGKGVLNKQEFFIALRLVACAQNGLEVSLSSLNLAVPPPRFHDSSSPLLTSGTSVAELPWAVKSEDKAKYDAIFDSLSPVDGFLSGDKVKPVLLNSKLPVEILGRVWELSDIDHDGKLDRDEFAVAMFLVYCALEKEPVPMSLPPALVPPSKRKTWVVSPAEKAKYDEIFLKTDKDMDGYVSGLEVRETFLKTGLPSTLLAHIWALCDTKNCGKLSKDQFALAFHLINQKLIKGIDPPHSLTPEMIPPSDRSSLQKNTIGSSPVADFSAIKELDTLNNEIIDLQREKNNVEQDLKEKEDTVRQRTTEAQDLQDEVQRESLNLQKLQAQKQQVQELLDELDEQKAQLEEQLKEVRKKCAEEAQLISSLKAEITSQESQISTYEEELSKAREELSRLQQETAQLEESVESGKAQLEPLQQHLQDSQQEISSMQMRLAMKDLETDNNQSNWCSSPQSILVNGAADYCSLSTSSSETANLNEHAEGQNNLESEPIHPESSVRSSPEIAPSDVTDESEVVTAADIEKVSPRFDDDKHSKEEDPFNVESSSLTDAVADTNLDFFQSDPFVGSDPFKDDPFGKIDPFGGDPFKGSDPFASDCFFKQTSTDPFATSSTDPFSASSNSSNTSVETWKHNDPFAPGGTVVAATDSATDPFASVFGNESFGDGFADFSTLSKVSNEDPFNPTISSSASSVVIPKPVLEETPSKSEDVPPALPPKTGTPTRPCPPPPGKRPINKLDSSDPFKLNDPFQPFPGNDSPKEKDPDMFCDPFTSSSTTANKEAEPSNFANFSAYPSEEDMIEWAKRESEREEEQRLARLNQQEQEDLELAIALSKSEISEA
B4: Adaptin ear-binding coat-associated protein 1 (Mus musculus), Q9CR95 (parent)
chain: B1 chain
B5: Adaptin ear-binding coat-associated protein 2 (Mus musculus), Q9D1J1 (parent)
chain: B2 chain
partner: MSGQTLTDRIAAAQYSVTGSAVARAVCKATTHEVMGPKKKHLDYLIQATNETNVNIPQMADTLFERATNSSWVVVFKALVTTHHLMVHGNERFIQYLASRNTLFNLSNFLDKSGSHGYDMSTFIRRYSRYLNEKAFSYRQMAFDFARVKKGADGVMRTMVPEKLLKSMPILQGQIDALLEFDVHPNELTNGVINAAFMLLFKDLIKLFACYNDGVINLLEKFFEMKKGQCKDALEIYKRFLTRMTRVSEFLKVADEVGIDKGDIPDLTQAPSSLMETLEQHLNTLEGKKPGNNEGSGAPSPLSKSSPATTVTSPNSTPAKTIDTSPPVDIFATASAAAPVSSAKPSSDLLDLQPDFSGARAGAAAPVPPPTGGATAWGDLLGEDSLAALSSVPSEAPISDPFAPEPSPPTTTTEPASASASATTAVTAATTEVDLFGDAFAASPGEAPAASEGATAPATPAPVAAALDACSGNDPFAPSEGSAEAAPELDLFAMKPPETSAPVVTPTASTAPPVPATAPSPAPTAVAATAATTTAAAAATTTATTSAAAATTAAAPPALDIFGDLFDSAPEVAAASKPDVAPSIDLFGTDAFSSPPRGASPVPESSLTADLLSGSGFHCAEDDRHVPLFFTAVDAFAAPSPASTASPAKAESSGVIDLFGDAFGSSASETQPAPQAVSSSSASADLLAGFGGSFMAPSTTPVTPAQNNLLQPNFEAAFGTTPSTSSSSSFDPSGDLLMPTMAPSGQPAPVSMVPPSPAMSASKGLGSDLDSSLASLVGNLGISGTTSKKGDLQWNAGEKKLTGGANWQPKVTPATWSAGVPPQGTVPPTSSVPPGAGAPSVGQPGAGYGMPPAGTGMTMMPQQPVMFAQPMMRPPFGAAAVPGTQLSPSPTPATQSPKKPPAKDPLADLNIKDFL

Variants of: B1
Details: with bin1_rat Bin1, O08839

**Q.** R21A was tested. Which “effect of a mutation on the interaction” value did it give?
**A.** disrupting interaction

**Q.** How did the “effect of a mutation on the interaction” value turn out when R102A was run?
**A.** disrupting interaction

Variants of: B2
Details: with Synj1, Q62910-1
Chain of Synj1, Q62910-1 (Q62910 whole entry): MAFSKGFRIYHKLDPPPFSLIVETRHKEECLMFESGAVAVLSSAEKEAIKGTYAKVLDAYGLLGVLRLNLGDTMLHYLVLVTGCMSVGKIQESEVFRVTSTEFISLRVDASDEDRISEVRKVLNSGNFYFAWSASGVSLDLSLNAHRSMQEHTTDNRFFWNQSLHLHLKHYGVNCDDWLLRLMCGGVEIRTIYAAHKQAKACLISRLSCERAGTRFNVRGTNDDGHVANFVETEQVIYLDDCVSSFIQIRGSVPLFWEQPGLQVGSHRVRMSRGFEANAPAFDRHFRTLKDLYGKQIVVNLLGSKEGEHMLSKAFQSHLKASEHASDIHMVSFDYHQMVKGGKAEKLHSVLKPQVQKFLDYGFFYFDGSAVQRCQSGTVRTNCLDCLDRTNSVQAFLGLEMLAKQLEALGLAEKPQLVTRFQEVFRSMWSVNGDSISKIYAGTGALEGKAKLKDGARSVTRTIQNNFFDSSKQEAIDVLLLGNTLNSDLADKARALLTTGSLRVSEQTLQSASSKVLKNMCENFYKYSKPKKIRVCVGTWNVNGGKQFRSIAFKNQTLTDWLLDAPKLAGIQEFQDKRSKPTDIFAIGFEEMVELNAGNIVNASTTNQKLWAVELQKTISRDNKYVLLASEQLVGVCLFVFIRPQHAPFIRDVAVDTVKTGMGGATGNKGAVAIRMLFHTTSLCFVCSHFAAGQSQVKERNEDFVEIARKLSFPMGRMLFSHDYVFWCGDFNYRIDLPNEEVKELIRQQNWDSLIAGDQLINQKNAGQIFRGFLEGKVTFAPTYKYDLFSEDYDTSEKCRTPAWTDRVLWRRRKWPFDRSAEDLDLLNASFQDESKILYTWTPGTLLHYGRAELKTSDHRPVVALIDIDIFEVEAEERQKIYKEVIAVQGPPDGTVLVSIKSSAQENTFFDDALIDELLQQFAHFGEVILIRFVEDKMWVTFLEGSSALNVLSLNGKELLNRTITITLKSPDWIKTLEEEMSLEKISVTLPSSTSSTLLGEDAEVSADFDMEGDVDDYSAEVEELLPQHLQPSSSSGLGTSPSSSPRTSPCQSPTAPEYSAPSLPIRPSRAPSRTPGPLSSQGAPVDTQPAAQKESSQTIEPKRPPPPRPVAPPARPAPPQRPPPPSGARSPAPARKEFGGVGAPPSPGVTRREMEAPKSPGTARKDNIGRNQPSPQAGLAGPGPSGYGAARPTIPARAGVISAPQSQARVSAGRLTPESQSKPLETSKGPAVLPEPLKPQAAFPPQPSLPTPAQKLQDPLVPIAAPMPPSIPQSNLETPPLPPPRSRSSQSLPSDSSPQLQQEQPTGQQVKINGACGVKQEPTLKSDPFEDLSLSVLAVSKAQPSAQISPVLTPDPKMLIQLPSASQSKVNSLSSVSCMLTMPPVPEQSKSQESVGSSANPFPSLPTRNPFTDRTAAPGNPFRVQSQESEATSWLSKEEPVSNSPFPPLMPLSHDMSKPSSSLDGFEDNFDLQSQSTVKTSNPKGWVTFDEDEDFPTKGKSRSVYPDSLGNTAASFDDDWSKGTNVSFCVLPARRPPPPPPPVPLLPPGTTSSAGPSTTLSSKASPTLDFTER

**Q.** For R101A, which “effect of a mutation on the interaction” value is on record?
**A.** disrupting interaction

**Q.** For R20A, which “effect of a mutation on the interaction” value is on record?
**A.** decreasing interaction

Variants of: B2
Details: with epn1_rat Epn1, O88339
Chain of epn1_rat Epn1, O88339 (O88339 whole entry): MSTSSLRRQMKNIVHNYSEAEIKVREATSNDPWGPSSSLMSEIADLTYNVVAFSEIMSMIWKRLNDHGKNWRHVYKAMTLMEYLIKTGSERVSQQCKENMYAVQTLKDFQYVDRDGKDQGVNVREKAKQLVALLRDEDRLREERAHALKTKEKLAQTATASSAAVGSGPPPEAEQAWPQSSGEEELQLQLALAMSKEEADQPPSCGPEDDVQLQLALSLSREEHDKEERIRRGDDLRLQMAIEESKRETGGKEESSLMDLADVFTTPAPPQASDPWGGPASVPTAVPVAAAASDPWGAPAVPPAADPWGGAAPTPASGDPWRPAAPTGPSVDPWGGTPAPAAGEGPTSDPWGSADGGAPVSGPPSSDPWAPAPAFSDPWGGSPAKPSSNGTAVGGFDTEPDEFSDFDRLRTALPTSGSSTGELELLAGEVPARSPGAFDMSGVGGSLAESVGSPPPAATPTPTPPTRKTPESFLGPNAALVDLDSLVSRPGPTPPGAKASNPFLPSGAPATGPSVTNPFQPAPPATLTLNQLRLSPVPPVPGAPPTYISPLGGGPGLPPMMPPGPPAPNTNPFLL

**Q.** R101A was tested. Which “effect of a mutation on the interaction” value did it give?
**A.** disrupting interaction

Variants of: B3
Details: with Eps15, A7BFV9

**Q.** How did the “effect of a mutation on the interaction” value turn out when R20A was run?
**A.** disrupting interaction

**Q.** Which “effect of a mutation on the interaction” value does the source give for R101A here?
**A.** disrupting interaction

Variants of: B4
Details: with Synj1, Q62910-1

**Q.** R21A was tested. Which “effect of a mutation on the interaction” value did it give?
**A.** decreasing interaction

**Q.** R102A was tested. Which “effect of a mutation on the interaction” value did it give?
**A.** disrupting interaction

Variants of: B5
Details: with ap180_rat Snap91, Q05140

**Q.** R20A was tested. Which “effect of a mutation on the interaction” value did it give?
**A.** disrupting interaction

**Q.** How did the “effect of a mutation on the interaction” value turn out when S41A was run?
**A.** increasing interaction

**Q.** Which “effect of a mutation on the interaction” value does the source give for R101A here?
**A.** disrupting interaction

From IntAct's records for PubMed 17762867
